In patent publication US20250129140A1 (ICAHN SCHOOL OF MEDICINE AT MOUNT SINAI, published 2025):

B1: 14E1 (antibody, V domains shown)
VH: QVQLVQSGAEVKKPGASVKVSCKASGYTFTSYSISWVRQAPGQGLEWMGWINTYNGNTNYAQRVQARVTMTTDTSTSTAYMELRSLRSDDTAVYYCARDHGFFFDYWGQGNLVTVSS
VL: DIQLTQSPSFLSASVGDRVTITCWASQGISSYLAWYQQKPGKAPKLLIYAASTLQSGVPSRFSGSGSGTEFTLTISSLQPEDFATYYCQQLNSYPYTFGQGTQLEIK
notes: also called 14E1 (ms)
B2: 5C3 (antibody, V domains shown)
VH: QVQLQQPGAELVRPGASVKLSCKASGYTFTTYWMNWVKQRPGQGLEWIGMIDPSDSETHYNQMFKDKATLTVDTSSSTAYMQLSSLTSEDSAVYYCARGRSWFVYWGQGTLVTVSS
VL: DIVLTQSPASLAVSLGQRATISCRASKSVSSSGYSYVHWYQQKPGQPPKLLIYLASNLESGVPARFSGSGSGTDFTLNIHSVEEEDAATYYCQHNRELPYTFGGGTKLEIKR
B3: 13G1 (antibody, V domains shown)
VH: QVTLKESGPVLVKPTETLTLTCTVSGFSLYNARMGVTWIRQPPGKALEWLAHIFSNDERSYTSSLKNRLTISKDTSKSQVVLTMTNMDPVDTATYYCARIDYSNYIGNWFDPWGQGTLVTVSS
VL: DIQMTQSPSSLSASVGDRVTITCRASQSISNYLNWYQQKPGKAPKLLIYAASSLQGGVPSRFSGSGSGTDFTLTISSLQPEDFTTYYCQQSYSTPFTFGGGTKVEIK
notes: also called 13G1 (ms); anti-gH mAb 13G1
B4: 15G11 (antibody, V domains shown)
VH: QVQLQESGPGLVKPSQTLSLTCTVSGGSISSGYYYWNWIRQHPGKGLECIGYIYYSGTTYYNPSLKSRLFISVDTSKNQFSLKLRSVTAADTAVYYCARGGLGAFDIWGQGTMVTVSS
VL: EIVLTQSPGTLSLSPGERATLSCRASQSVSSSYLAWYQQKPGQAPRLLIYGASSRAPGIPDRFSGTGSGTDFTLTISRLEPEDFAVYYCQQYGISPLTFGGGTKVEIK
notes: also called 15G11 (ms); anti-gH mAb 15G11
B5: 9A12 (antibody, V domains shown)
VH: EVQLVESGGVLVQPGGSLRLSCAASGFTFSSHEMNWVRQAPGKGLEWISYISSTGSTIYDADSVKGRFTISRDNAKNSLYLQMNSLRAEDTAVYYCARSSGWYRNYSYGMDVWGQGTTVTVSS
VL: DIQMAQSPSSLSASVGDRVTITCRASQGIYNYLAWFQQKPGKAPKSLIYAASSLQTGVPSKFSGSGSGTDFTLTISNLQPEDFATYYCQQYNSFPRTFGQGTKVEIK
notes: also called 9A12 (ms); anti-gH mAb 9A12

Columns and labels:
[1] = molecular target: T1, gH/gL of HCMV strain AD169 (on virus AD169 and on reporter virus AD169R) (human cytomegalovirus (strain AD169), UniProt P12824 24-743; P16832 31-278); experiment: flow cytometry on ARPE-19 cells infected with AD169R (GFP reporter), 6 dpi, antibody 2 µg/mL, anti-mouse AF647 secondary
[2] = molecular target: T2, recombinant HCMV pentamer (strain VR1814) consisting of gH, gL, UL128, UL130 and UL131A (human cytomegalovirus (strain VR1814)); experiment: BLI (Octet RED); antibody captured on anti-mouse Fc (AMC) biosensor, recombinant pentamer 100 µg/mL in solution; 1:1 model
T2 construct: also called recombinant pentamer; Native Antigen CMV-PENT-100

[3] = molecular target: T3, gH/gL of HCMV strain TB40/E (on virus) (human cytomegalovirus (strain TB40/E)); experiment: cell-based or functional assay
[4] = molecular target: T1, gH/gL of HCMV strain AD169 (on virus …); experiment: cell-based or functional assay
[5] = molecular target: T3, gH/gL of HCMV strain TB40/E (on virus); experiment: cell-based or functional assay; remark: listed apart in the source
[6] = molecular target: gH/gL of HCMV strain TR (on virus) (human cytomegalovirus (strain TR)); experiment: cell-based or functional assay
[7] = molecular target: gH/gL of HCMV strain Towne (on virus) (human cytomegalovirus (strain Towne), UniProt P17176 30-742); experiment: cell-based or functional assay
[8] = molecular target: T1, gH/gL of HCMV strain AD169 (on virus …); experiment: cell-based or functional assay; remark: listed apart in the source
[9] = molecular target: T1, gH/gL of HCMV strain AD169 (on virus …); experiment: cell-based or functional assay; remark: listed apart in the source
[10] = molecular target: gH/gL of HCMV strain AD169 (on virus AD169 and on reporter virus AD169R) (human cytomegalovirus (strain AD169), UniProt P12824 24-743; P16832 31-278); experiment: flow cytometry on ARPE-19 cells infected with AD169R (GFP reporter), 6 dpi, antibody 2 µg/mL, anti-mouse AF647 secondary; remark: listed apart in the source
[11] = molecular target: T3, gH/gL of HCMV strain TB40/E (on virus); experiment: cell-based or functional assay; remark: listed apart in the source
[12] = molecular target: T1, gH/gL of HCMV strain AD169 (on virus …); experiment: cell-based or functional assay; remark: listed apart in the source

Sequence of gH/gL of HCMV strain Towne (on virus) (P17176 30-742): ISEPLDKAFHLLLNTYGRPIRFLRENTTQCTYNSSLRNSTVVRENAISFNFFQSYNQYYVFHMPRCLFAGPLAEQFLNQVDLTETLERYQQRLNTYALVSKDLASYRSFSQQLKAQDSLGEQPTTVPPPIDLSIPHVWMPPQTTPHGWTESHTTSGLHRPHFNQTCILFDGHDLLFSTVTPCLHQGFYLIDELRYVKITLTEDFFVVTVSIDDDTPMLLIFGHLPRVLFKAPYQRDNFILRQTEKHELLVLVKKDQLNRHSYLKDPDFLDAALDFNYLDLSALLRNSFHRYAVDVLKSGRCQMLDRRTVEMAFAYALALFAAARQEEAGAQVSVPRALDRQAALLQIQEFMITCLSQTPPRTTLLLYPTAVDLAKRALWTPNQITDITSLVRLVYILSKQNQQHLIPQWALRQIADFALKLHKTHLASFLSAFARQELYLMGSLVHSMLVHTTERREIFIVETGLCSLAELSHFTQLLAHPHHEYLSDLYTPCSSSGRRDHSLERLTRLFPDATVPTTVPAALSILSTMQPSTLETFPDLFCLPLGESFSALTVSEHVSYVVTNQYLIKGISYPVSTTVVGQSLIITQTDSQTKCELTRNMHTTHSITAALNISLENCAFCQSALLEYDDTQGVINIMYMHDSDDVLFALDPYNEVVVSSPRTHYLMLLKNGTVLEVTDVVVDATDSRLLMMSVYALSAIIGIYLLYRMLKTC

| Binder | Q2, percent of cells GFP+ and Alexa Fluor 647+ [1] [%] | Kd [2] [nM] | koff [2] [s⁻¹] | kon [2] [M⁻¹ s⁻¹] | IC50(ARPE-19) TB40/E, virus neutralization [3] [mg/L] | IC50(HTR-svNeo) TB40/E, virus neutralization [3] [mg/L] | IC50(ARPE-19) AD169R, virus neutralization [4] [mg/L] | IC50(HTR-svNeo) AD169R, virus neutralization [4] [mg/L] | IC50(MRC5/NHDF) TB40/E, virus neutralization [5] [mg/L] | IC50(MRC5/NHDF) TR, virus neutralization [6] [mg/L] | IC50(MRC5/NHDF) Towne, virus neutralization [7] [mg/L] | IC50(MRC5/NHDF) AD169, virus neutralization [8] [mg/L] | IC50(MRC5/NHDF) AD169R, virus neutralization [8] [mg/L] | IC50(THP-1) AD169R, virus neutralization [9] [mg/L] | Q2, percent of cells GFP+ and Alexa Fluor 647+ [10] [%] | IC50(THP-1) TB40/E, virus neutralization [11] [mg/L] | neutralization of BADrUL131-C4 infection at the highest concentrations [12] [%] | IC50 of infection, AD169R neutralization (murine constant regions) [12] [mg/L] |
| --- | --- | --- | --- | --- | --- | --- | --- | --- | --- | --- | --- | --- | --- | --- | --- | --- | --- | --- |
| B1 | 3.68 | 64.6 | 0.00158 | 24400 | 3.06 | > 50 | 0.11 | 19.2 | 0.89 | > 50 | > 50 | 0.91 | 1.78 | 0.02 |  |  |  |  |
| B2 |  |  |  |  |  |  |  |  |  |  |  |  |  |  | 3.37 |  |  |  |
| B3 | 0.89 | 5.05 | 6.51e-05 | 12900 | 1.01 | 1.12 | 1.03 | 1.82 | 0.89 | 3.26 | 1.09 | 15.9 | 0.58 | 0.03 |  | 0.02 | > 90 |  |
| B4 | 0.4 | 2.28 | 8.69e-05 | 38200 | 0.09 | 0.41 | 0.24 | 0.44 | 0.5 | 3.51 | 0.87 | 0.31 | 0.51 | 0.01 |  | 0.39 | > 90 | 0.17 |
| B5 |  | 3.47 | 8.6e-05 | 24800 | 1.1 | 0.72 | 1.28 | ~1.8 | 1.09 | 6.96 | 2.53 | 0.77 | 1.52 | 0.08 |  |  | > 90 |  |
